The source of these data is US20210130437A1 (ALPINE IMMUNE SCIENCES, published 2021).

One assay deals with T1, CD28 (Homo sapiens (Human), UniProt P10747 19-220).
T1 construct: Expressed on transfected HEK293 cells
Description: flow cytometry, HEK293 cells transfected with CD28.

The target of assay [1] is T2, TIGIT (Homo sapiens (Human), UniProt Q495A1 22-244).
T2 construct: on transfected cells
T2 sequence: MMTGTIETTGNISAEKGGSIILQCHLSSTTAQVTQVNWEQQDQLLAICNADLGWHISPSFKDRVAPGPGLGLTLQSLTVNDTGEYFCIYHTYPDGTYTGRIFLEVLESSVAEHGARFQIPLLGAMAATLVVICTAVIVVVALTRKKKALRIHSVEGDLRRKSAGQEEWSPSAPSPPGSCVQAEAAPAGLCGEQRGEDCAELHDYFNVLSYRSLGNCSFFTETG
Description: flow cytometry, transfected cells.

A further assay addresses T3, CD226 (Homo sapiens (Human), UniProt Q15762 19-336).
T3 construct: on transfected cells
T3 sequence: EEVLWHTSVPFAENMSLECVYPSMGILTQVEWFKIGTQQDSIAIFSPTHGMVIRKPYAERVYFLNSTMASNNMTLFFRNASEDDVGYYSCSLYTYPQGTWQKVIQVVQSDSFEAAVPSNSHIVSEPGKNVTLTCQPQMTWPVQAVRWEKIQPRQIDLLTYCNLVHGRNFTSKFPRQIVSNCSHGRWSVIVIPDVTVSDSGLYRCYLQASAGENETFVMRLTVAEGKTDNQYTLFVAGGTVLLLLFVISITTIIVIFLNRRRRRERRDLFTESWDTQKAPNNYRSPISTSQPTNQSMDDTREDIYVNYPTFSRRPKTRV
Description: flow cytometry, transfected cells.

The next assay addresses T4, CD96 (UniProt P40200 22-585, limits assumed).
T4 construct: whole, on cells; on transfected cells
T4 sequence (looked up): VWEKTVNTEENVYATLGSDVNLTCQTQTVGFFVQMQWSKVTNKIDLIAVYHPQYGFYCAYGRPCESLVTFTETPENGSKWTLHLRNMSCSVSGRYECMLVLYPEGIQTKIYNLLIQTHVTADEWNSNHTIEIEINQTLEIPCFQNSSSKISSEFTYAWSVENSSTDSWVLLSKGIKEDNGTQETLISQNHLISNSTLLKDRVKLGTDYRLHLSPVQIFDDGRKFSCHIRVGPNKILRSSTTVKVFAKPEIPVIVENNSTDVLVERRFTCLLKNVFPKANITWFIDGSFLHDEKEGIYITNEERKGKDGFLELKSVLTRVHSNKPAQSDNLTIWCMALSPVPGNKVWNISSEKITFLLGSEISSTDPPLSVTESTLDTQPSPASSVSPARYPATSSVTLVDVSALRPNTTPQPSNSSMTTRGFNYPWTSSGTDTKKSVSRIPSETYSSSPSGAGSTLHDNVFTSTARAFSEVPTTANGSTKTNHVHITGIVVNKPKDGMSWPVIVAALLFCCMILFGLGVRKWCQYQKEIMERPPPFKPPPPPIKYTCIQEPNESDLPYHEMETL
Description: flow cytometry, transfected cells.

Assay [2] deals with T5, TIGIT (UniProt Q495A1 22-244).
T5 construct: whole, on cells; cell-expressed counter structure
T5 sequence (looked up): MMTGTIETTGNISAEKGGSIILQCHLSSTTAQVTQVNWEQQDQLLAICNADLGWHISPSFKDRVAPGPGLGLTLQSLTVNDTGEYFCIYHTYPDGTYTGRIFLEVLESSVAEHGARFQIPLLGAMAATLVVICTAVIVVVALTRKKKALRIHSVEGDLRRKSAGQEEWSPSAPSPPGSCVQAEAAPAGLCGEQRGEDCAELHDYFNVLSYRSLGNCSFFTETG
Description: flow cytometry, cells expressing TIGIT.

B1: WT CD80 ECD Fc (Fc fusion, not shown: a dimerising Fc or GST)
chain: VIHVTKEVKEVATLSCGHNVSVEELAQTRIYWQKEKKMVLTMMSGDMNIWPEYKNRTIFDITNNLSIVILALRPSDEGTYECVVLKYEKDAFKREHLAEVTLSVKADFPTPSISDFEIPTSNIRRIICSTSGGFPEPHLSWLENGEELNAINTTVSQDPETELYAVSSKLDFNMTTNHSFMCLIKYGHLRVNQTFNWNTTKQEHFPDN
As to B1, in the assay with CD28, the “MFI at 66.6 nM” value turned out to be 3070.

B2: variant CD155 IgV-Fc P18L, L79V, F91S (Fc fusion, not shown: a dimerising Fc or GST)
chain: WPPPGTGDVVVQAPTQVLGFLGDSVTLPCYLQVPNMEVTHVSQLTWARHGESGSMAVFHQTQGPSYSESKRLEFVAARVGAELRNASLRMSGLRVEDEGNYTCLFVTFPQGSRSVDIWLRVL
On to B2, for which the MFI parental ratio is 1.5 ratio with TIGIT [1], 1.4 ratio with CD226 and 1.1 ratio in the assay with CD96.

B3: variant CD155 IgV-Fc P18T, F91S, R94H (Fc fusion, not shown: a dimerising Fc or GST)
chain: WPPPGTGDVVVQAPTQVTGFLGDSVTLPCYLQVPNMEVTHVSQLTWARHGESGSMAVFHQTQGPSYSESKRLEFVAARLGAELRNASLRMSGLHVEDEGNYTCLFVTFPQGSRSVDIWLRVL
With B3, the MFI parental ratio with TIGIT [1] amounted to 1.1 ratio; in the assay with CD226 it was 1 ratio; with CD96, 0.8 ratio.

B4: variant CD155 IgV-Fc V9L, V11M, P18S, N35S, S54G, Q62K, L79P, L104M, T107M, V115M (Fc fusion, not shown: a dimerising Fc or GST)
chain: WPPPGTGDLVMQAPTQVSGFLGDSVTLPCYLQVPSMEVTHVSQLTWARHGESGGMAVFHQTKGPSYSESKRLEFVAARPGAELRNASLRMFGLRVEDEGNYTCMFVMFPQGSRSMDIWLRVL
As for B4, in the assay with TIGIT [2], the “MFI at 25 nM” value was 3000.
